# Measured values reported in patent US20210093667.
# How the values were obtained:
# [1] = system: dPspCas13b-ADAR2DD(E488Q) (REPAIRv1) H133A,H1058A (Prevotella sp. P5-125 / Homo sapiens); experiment: cell_activity
# [2] = system: dPspCas13b-ADAR1DD H133A,H1058A (Prevotella sp. P5-125 / Homo sapiens); experiment: cell_activity; details: on-target A-to-I RNA editing
substance,measurement,setting,value
Cluc W85X targeting guide ; Cluc W85X transcript (254 A>G site),activity,[1]; 10 ng Cas13-ADAR transfected,80 % editing
same,activity,[1]; 150 ng Cas13-ADAR transfected,83 % editing
same,activity,[1]; on-target A-to-I RNA editing,71 % editing
same,activity,[2],29 % editing
